The text below walks through data of patent US12578329B2, “Reagent kit containing polypeptide for use in detection of intermolecular interactions” (SHIMADZU CORPORATION, priority 2021, dated 2026).

Data set [1] in a line: Emission value of secretion-expressed luciferase in COS-7 culture medium, coelenterazine substrate. Format: biochemical. The conditions noted are these: for emission values (rank order): Experiment 5. As to the method:
(§1) • (1) COS-7 cells derived from the kidney of African green monkey were inoculated in a 24-well dish, and on the next day, subconfluency was attained. • (2) 25 μL of Opti-MEM (Thermo Fisher Scientific™), 400 ng (2 μL) of the plasmid, and 1 μL of P3000 (Invitrogen™, Waltham, MA) were mixed. • (3) 25 μL of Opti-MEM and 1 μL of lipofectoamine 3000 (Invitrogen™) were mixed. • (4) (2) and (3) were mixed together, followed by incubation at room temperature for 5 minutes. • (5) The mixture was added to the medium of (1). • (6) 500 μL of Dulbecco's modified Eagle's medium was added, followed by culturing the cells at 37° C. for 1 day and then collecting the medium. The medium contained secretion-expressed luciferase. • (7) To 100 μL of the medium, coelenterazine was added as a substrate at a final concentration of 5 μM, followed by measuring the emission value by using Enspire multi-mode plate reader (PerkinElmer™, Waltham, MA).
By the same manner as in Experiment 2, the emission value was measured.
The emission value was measured in the same manner as in Experiment 2 except that the final concentration of coelenterazine was changed to 0.5 μM. […] The emission value was measured in the same manner as in Experiment 2 except that the final concentration of coelenterazine was changed to 5 μM.

The nature of data set [2]: Emission activity of divided enzyme (Escherichia coli lysates, single or mixed). The note with it: Experiment 11-2, coelenterazine 5 μM, Enspire multi-mode plate reader. It counts as biochemical. From the text: picALuc30 was divided to prepare plasmids (pET32 vectors) for expression of polypeptides from position 4 to 22, from position 23 to 120, from position 4 to 47, from position 48 to 120, from position 4 to 77, from position 80 to 120, from position 4 to 90, and from position 91 to 120 of the amino acid sequence in SEQ ID NO: 51. In the same manner as in Experiment 10, the plasmid was introduced into Escherichia coli SHuffle T7 Express lysY, and from the cultured bacterial cells, a lysate was obtained. To 100 μL of a single lysate or a mixture of lysates as specified in FIG. 25, coelenterazine was added as a substrate at a final concentration of 5 μM, followed by measuring the emission value by using an Infinite (registered trademark) 200 PRO plate reader (TECAN). Because the lysate contained luciferase fragments at high concentrations, it was expected that when fragment-containing lysates were mixed, two types of fragments were highly likely to encounter each other and these two fragments could form the original luciferase structure.
picALuc30 was divided to further prepare plasmids (pET32 vectors) for expression of polypeptides from position 4 to 58, from position 4 to 64, from position 4 to 72, from position 65 to 120, from position 73 to 120, and from position 104 to 120 of the amino acid sequence in SEQ ID NO: 51. In Experiment 11-2, emission values were measured in the same manner as in Experiment 11-1 except that an Enspire multi-mode plate reader (PerkinElmer™) was used for emission value detection.

Data set [3] in a line: Emission value of secretion-expressed luciferase in COS-7 culture medium, coelenterazine h substrate. The note with it: Experiment 5. Format: biochemical. As to the method:
as §1
The emission value was measured in the same manner as in Experiment 2 except that coelenterazine h was used as a substrate in a final concentration of 5 μM. […] The emission value was measured in the same manner as in Experiment 2 except that coelenterazine h was used as a substrate in a final concentration of 25 μM.

Data set [4] is described as follows: Emission value of secretion-expressed luciferase in COS-7 culture medium, furimazine substrate. It counts as biochemical. The note with it: Experiment 5; furimazine in the concentration recommended by the manufacturer. As to the method: as §1
The emission value was measured in the same manner as in Experiment 2 except that furimazine, which was available from Promega™ as a NanoLuc® substrate, was used as a substrate in the concentration recommended by the manufacturer.

The nature of data set [5]: Stability of protein terminus: Western blot detection of Flag-tag and His-tag in culture supernatant. The conditions noted are these: secretion-expressed luciferase in COS-7 culture supernatant; Western blotting. From the text:
In the same manner as in Experiment 2, the plasmid was transfected into COS-7 cells and culture supernatant was collected. Flag-tag added to the N terminus of each secretion-expressed luciferase and His-tag added to the C terminus thereof were detected by Western blotting (SDS-PAGE, Mini-PROTEAN TGX Gel StainFree 4-15% (Bio-Rad™, Hercules, CA)) (FIG. 17). The antibodies used were Anti 6×Histidine, Monoclonal Antibody (9C11), Peroxidase Conjugated (manufactured by FUJIFILM Wako Pure Chemical Corporation, 1:1000) and Monoclonal ANTI-FLAG (R) M2-Peroxidase (HRP) antibody produced in mouse, clone M2 (manufactured by Sigma-Aldrich™, St. Louis, MO, 1/1000), respectively, and detection was performed with Amesham Imager 680 (Cytiva™, Marlborough, MA).
Background: In western blotting, separated proteins are transferred to a membrane and probed.

Data set [6] can be described thus: Measurement of specific activity (enzyme concentrations adjusted by Western blot signal). It counts as biochemical. As to the method:
The specific activities of NanoLuc®, ALuc30 wt, and picALuc30 were measured, with their enzyme concentrations adjusted based on the Western blot signal intensity obtained in Experiment 6.

The mark [7] stands for this setting: Experiment 2, coelenterazine 5 μM, medium of transfected COS-7 cells.

B1: picALuc48: SEQ ID NO: 53; ALuc48 with deletion of N terminus and C terminus, corresponding to picALuc30 (protein)
chain: HGGLPGKKMPLEVLLELEANAQRAGCTRGCLICLSKIKCTAKMKKWLPGRCESWAGDKETGQGGITEEETVDIPEIPGFKDLEPMEQFIAQVDLCVDCTTGCLKGLANVKCSDLLKKWLPSRCAT
modifications: picALuc48
notes: ALuc48 with deletion of N terminus and C terminus, corresponding to picALuc30
For B1, the emission value result in data set [1] (setting [7]) was “sufficiently high”.

B2: picALuc16: SEQ ID NO: 52; ALuc16 with deletion of N terminus and C terminus, corresponding to picALuc30 (protein)
chain: KLPGKKLPLEVLKELEANAQKAGCTRGCLICLSHIKCTAKMKKWLPGRCESWEGDKETGQGGIGEAIVDIPEIPGFKDLEPMEQFIAQVDLCVDCTTGCLKGLANVKCSDLLKKWLPSRCAT
modifications: picALuc16
notes: ALuc16 with deletion of N terminus and C terminus, corresponding to picALuc30
Regarding B2, the emission value entry in data set [1] (setting [7]) was “sufficiently high”.

B3: position 4 to 58 and position 23 to 120: combination of polypeptides of these positions of SEQ ID NO: 51 (SEQ ID NOs: 78 and 81) (protein)
chain 1: GKKLPLEVLKELEANAQKAGCTRGCLICLSHIKCTAKMKKWLPGRCESWEGDKET
chain 2: GCTRGCLICLSHIKCTAKMKKWLPGRCESWEGDKETGQGGIGEAIVDIPEIPGFKELAPMEQFIAQVDLCADCTTGCLKGLANVKCSALLKKWLPSRC
modifications: part of picALuc30
In the case of B3, the emission value entry in data set [2] is given as “high emission value”.

B4: position 4 to 72 and position 23 to 120: combination of polypeptides of these positions of SEQ ID NO: 51 (SEQ ID NOs: 80 and 81) (protein)
chain 1: GKKLPLEVLKELEANAQKAGCTRGCLICLSHIKCTAKMKKWLPGRCESWEGDKETGQGGIGEAIVDIPE
chain 2: GCTRGCLICLSHIKCTAKMKKWLPGRCESWEGDKETGQGGIGEAIVDIPEIPGFKELAPMEQFIAQVDLCADCTTGCLKGLANVKCSALLKKWLPSRC
modifications: part of picALuc30
For the molecule B4, in data set [2], the emission value entry is listed as “high emission value”.

B5: position 4 to 72 and position 73 to 120: combination of polypeptides of these positions of SEQ ID NO: 51 (SEQ ID NOs: 80 and 84) (protein)
chain 1: GKKLPLEVLKELEANAQKAGCTRGCLICLSHIKCTAKMKKWLPGRCESWEGDKETGQGGIGEAIVDIPE
chain 2: IPGFKELAPMEQFIAQVDLCADCTTGCLKGLANVKCSALLKKWLPSRC
modifications: part of picALuc30
With B5, the emission value result in data set [2] is “high emission value”.

B6: position 4 to 72 and position 104 to 120: combination of polypeptides of these positions of SEQ ID NO: 51 (SEQ ID NOs: 80 and 85) (protein)
chain 1: GKKLPLEVLKELEANAQKAGCTRGCLICLSHIKCTAKMKKWLPGRCESWEGDKETGQGGIGEAIVDIPE
chain 2: ANVKCSALLKKWLPSRC
modifications: part of picALuc30
Regarding B6, the emission value entry in data set [2] was “high emission value”.

B7: ALuc30Δloop2N1: SEQ ID NO: 54; ALuc30 wt with N terminus (1 to 49) and loop 2 (122 to 128) deleted, Gly-Ser inserted; 14 kDa (protein)
chain: RGRRGKLPGKKLPLEVLKELEANAQKAGCTRGCLICLSHIKCTAKMKKWLPGRCESWEGDKETGQGGIGEAIVGSFKELAPMEQFIAQVDLCADCTTGCLKGLANVKCSALLKKWLPSRCAGFADKIQAQVDTIKGAGGS
modifications: ALuc30_del_loop2N1
notes: ALuc30 wt with N terminus (1 to 49) and loop 2 (122 to 128) deleted, Gly-Ser inserted; 14 kDa
B7: the emission value result in data set [1] (Experiment 4, same manner as Experiment 2 (coelenterazine 5 μM)) is listed as “about half the emission value of ALuc30ΔN1”.

B8: ALuc30 wt: artificial luciferase; positions 20 to 212 of ALuc30 (SEQ ID NO: 28) without a signal sequence; about 21 kDa (protein)
chain: HHHHHHHHDIVGVEGKFGTTDLETDLFTIVEDMNVISRDTDVDANRADRGRRGKLPGKKLPLEVLKELEANAQKAGCTRGCLICLSHIKCTAKMKKWLPGRCESWEGDKETGQGGIGEAIVDIPEIPGFKELAPMEQFIAQVDLCADCTTGCLKGLANVKCSALLKKWLPSRCAGFADKIQAQVDTIKGAGGS
modifications: ALuc30
notes: artificial luciferase; about 21 kDa
As to B8, the “emission values (rank order)” value was “NanoLuc®>>picALuc30>TurboLuc™>ALuc30 wt>GLuc” in data set [1] (coelenterazine 0.5 μM), “ALuc30 wt=picALuc30>NanoLuc®>TurboLuc™>GLuc” in data set [1] (coelenterazine 5 μM), “TurboLuc™=ALuc30 wt>>NanoLuc®>picALuc30>GLuc” in data set [3] (coelenterazine h 5 μM) and “picALuc30>>NanoLuc®=TurboLuc™=ALuc30 wt>>GLuc” in data set [3] (coelenterazine h 25 μM). The emission value entry in data set [4] is “low as compared to NanoLuc® and TurboLuc™”. Moreover, the “stability of protein termini (Flag-tag and His-tag detection)” value in data set [5] was “both termini remaining”. For the same molecule, the maximum emission value result in data set [6] (Experiment 7) was “same maximum emission value as NanoLuc®”. The specific activity result in data set [6] (coelenterazine or coelenterazine h as substrate) is “the same as the specific activity of picALuc”.

B9: position 4 to 64 and position 65 to 120: combination of polypeptides of these positions of SEQ ID NO: 51 (SEQ ID NOs: 79 and 83) (protein)
chain 1: GKKLPLEVLKELEANAQKAGCTRGCLICLSHIKCTAKMKKWLPGRCESWEGDKETGQGGIG
chain 2: EAIVDIPEIPGFKELAPMEQFIAQVDLCADCTTGCLKGLANVKCSALLKKWLPSRC
modifications: part of picALuc30
Take B9: the emission value result in data set [2] is given as “high emission value”.

B10: position 4 to 64 and position 73 to 120: combination of polypeptides of these positions of SEQ ID NO: 51 (SEQ ID NOs: 79 and 84) (protein)
chain 1: GKKLPLEVLKELEANAQKAGCTRGCLICLSHIKCTAKMKKWLPGRCESWEGDKETGQGGIG
chain 2: IPGFKELAPMEQFIAQVDLCADCTTGCLKGLANVKCSALLKKWLPSRC
modifications: part of picALuc30
Take B10: the emission value result in data set [2] is on record as “high emission value”.
